Results reported in patent publication US20240425587A1 (Alector, published 2024).
Positions count from the first letter of the chain named. In names and notes the source's numbering stands.

B1: D2 (antibody, V domains shown)
VH: QIQLGQSGPELKRPRETVKISCKASGYTFTTYGMSWVKQAPGKGLRWMGWINTHSGVPAYADDFKGRFAFSLETSANTAFLQINNLENEDTATYFCAKDYNWGMDYWGQGTSVIVSS
VL: QLVLTQSSSASFSLGASAKLTCTLSSQHSTYTIEWYQQQPLKPPKYVMEVKKDGSHSTGDGIPDRFSGSSSGADRYLSISNIQPEDEAIYICGVGDSIKEQFVYVFGGGTKVTVL
notes: second hybridoma campaign
B2: D5 (antibody, V domains shown)
VH: EVKLDETGGGLVQPGRPMKLSCVASGFTFSDYWMNWVRQSPEKGLEWVAQIRNKLYNYETYYSDSVKGRFTISRDDSKSSVYLQMNNLRAEDMGIYYCTVGLAMDYWGQGTSVTVSS
VL: DIQMTQSSSSFSVSLGDRVTITCKASEDIYNRLAWYQQKPGNAPRLLISGATSLETGVPSRFSGSGSGKEYTLNITSLQTEDVATYYCQQYWSTPTFGGGTKLEIK
notes: second hybridoma campaign
B3: E12 (antibody, V domains shown)
VH: QVQLQQSGAELAKPGASVKLSCKASGYTFTSYWIHWVKQRPGQGLEWIGYINPSSGDTEYNQKFKDKATLTADKSSNTAYMQLSSLTYEDSAVYYCARSAPDDGYYDYAMDYWGQGTSVTVSS
VL: DIVMTQSRKFMSTSVGDRVSVTCKASQNVGSNVAWYQQKPGQSPKGLTYSASYRYSGVPDRFTGSGSGTDFTLTISNVQSEDLAEYFCQQYNSYPYTFGGGTKLEIK
notes: B-cell cloning campaign (mice)
B4: C8 (antibody, V domains shown)
VH: EVQLQQSGADLVKSGASVKLSCTASGFNIKDYYIHWVKQRTAQGLEWIGRITPEDGETEYAPTFQVKATITADTSSNTAYLQLNSLTSEDTAVYYCSLGDYDVSPFAYWGQGTLVTVSA
VL: DIQMTQSPASQSASLGESVTITCLASQTIGTWLAWYQQKPGKSPQLLIYAATSLADGVPSRFSGSGSGTKFSFKISSLQAEDFVSYYCQQLYSTPYTFGGGTKLEIK
notes: first hybridoma campaign
B5: C7 (antibody, V domains shown)
VH: QVQLQQSGAELARPGTSVKLSCKASGYIFTDYAISWVKQRTGQGLQWIGEIYPGSDNAYYNENFKGKATLTADKSSNTAYMELRSLTSEDSAVYFCAKWAGSLFDFWGQGTALTVSS
VL: B3 VL with R8Q, Q27R, S31F, K39N, G46A, T48I, N77D, Q89H, K107R
notes: first hybridoma campaign
B6: E13 (antibody, V domains shown)
VH: QVQLQQPGAELVMPGASVKLSCKASGYTFTRYWIHWVRQRPGQGLEWIGEIDPSDSYTNHNQKFKDKATLTVDKSSSTAYMQLSSLTSEDSAVYFCANSNYDYWGQGTTLTVSS
VL: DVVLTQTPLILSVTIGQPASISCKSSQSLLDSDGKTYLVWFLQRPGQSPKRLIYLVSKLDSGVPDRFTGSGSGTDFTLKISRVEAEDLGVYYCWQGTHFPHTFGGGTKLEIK
notes: first hybridoma campaign
B7: C1 (antibody, V domains shown)
VH: QIQLVQSGPELKKPGETVKISCKASGYTFTTYGMSWVKQAPGKGLKWMGWINTYSGVPTYADDFQGRFAFSLETSASTAYLQINNLKNEDTAPYFCVRDGYAAPYWGQGTLVTVSA
VL: NIMMTQSPSSLAVSAGEKVTMRCKSSQSVLYSSNQKNYLAWYQQKPGQSPKLLIYWASTRESGVPDRFTGSGSGTDFTLTISSVQAEDLAVYYCHQYLSSWTFGGGTKLEIK
notes: first hybridoma campaign
B8: C2 (antibody, V domains shown)
VH: QVQLQQSGAELVRPGASVTLSCKAAGYTFADYEMHWVRQTPVLGLEWIGAIDSEPGRTVYNQKFKSKAILTADKSSSTAYMELRSLTSDDSAVYYCTRRGAFYTNYDFFDYWGQGTTLTVSS
VL: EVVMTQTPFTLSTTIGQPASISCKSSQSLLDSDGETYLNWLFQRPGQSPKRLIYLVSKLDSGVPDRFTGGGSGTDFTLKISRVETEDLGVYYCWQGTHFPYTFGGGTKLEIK
notes: first hybridoma campaign
B9: hPA-002 (hIgG4 isotype) (antibody, V domains shown)
VH: QVTLQESGPGILQPSQTLSLTCSFSGFSLSTFGMGVGWIRQPSGKGLEWLAHIWWDDDKYYNPALKSRLTISKDTSKNQVFLKIASVDTADIATYYCARVEDYGNPFDYWGQGTTL
VL: DIQMNQSPSSLSASLGDTITITCHASQNIHVWLNWYQQKPGNIPKLLIYKASNLHTGVPSRFSGSGSGTGFTVTISSLQPEDIATYYCQQGQSYPLTFGAGTKLELK
B10: A16 (hIgG4 isotype) (antibody, V domains shown)
VH: QVQLVQSGAEVKKPGSSVKVSCKASGYNFLNYDVNWVRQAPGQGLEWMGGIIPIFGTANYAQKFQGRVTITADESTSTAYMELSSLRSEDTAVYYCATGVGAGWFDPWGQGTLVTVSS
VL: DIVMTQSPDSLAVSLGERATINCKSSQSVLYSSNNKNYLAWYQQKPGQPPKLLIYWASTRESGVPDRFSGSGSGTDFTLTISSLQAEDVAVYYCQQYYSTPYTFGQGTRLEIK
B11: B1 (hIgG4 isotype) (antibody, V domains shown)
VH: DVKLVESGGGLVKLGGSLKLSCAASGFTFSSYYMSWVRQTPEKRLEWVAAINSNGDRSYYPDTVKGRFTISRDNAKNTLYLQMSSLKSEDTAFYYCASHGNYYGSPWFAYWGQGTLVTVSA
VL: ETTVTQSPASLSVATGEKVTIRCKTSTDIDDDMNWYQQKPGEPPKLLISEGNTLRPGVPSRFSSSGYGTDFVFTIENTLSEDVADYYCLQNDHMPLTFGGGTKLEIK

What follows are binders tested against T1, PILRA Fc (soluble human PILRA) (human, UniProt Q9UKJ1 20-197, limits assumed) (assay: flow cytometry; blocking of PILRA Fc binding to human CD3+ T cells (Donor 1019)).
T1 construct: also called soluble PILRA; not shown: Fc part, detected with anti-human IgG
Experimental: (§1) The ability of conditioned media samples containing antibodies to inhibit the binding of PILRA Fc to human CD3+ T cells was assessed. Briefly, conditioned media samples containing antibodies were incubated with 1.25 ug/ml PILRA Fc for 30 min at 4° C. and then added to human T cells. After 30 minutes incubation at 4° C., cells were washed, and bound PILRA Fc was detected with anti-human IgG Alexa 647. Cells were analyzed by flow cytometry on FACS Canto II, and for all cell lines, the amount of PILRA Fc binding (MIFI) and the percentage of PILRA Fc binding in the presence of conditioned media relative to PILRA Fc binding alone was calculated. Several antibodies inhibited binding of PILRA Fc to human T cells, and a few antibodies enhanced PILRA-Fc binding to T cells. Antibodies that show enhancement in this assay may block cis inhibition to promote trans interactions or may allosterically activate to enhance trans interactions without blocking cis.

T1 sequence (Q9UKJ1 20-197 limits assumed): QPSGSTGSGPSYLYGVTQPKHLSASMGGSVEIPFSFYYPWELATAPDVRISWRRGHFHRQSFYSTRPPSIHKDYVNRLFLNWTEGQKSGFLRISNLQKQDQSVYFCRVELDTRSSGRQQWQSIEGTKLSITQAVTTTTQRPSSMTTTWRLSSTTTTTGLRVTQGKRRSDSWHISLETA

| Binder | IC50 [µg/mL] |
| --- | --- |
| B1 | 3.3 |
| B2 | 4.56 |
| B3 | 2.2 |

These binders were tested against T2, human PILRB, ectopically expressed on 293 cells (human, UniProt Q9UKJ0 20-227) (assay: flow cytometry, 293 cells expressing target).
T2 construct: also called hB
Experimental: (§2) Briefly, conditioned media containing antibodies were incubated with 293 cells for 30 min at 4° C., washed twice, and then detected with anti-mouse IgG Alexa 647.

T2 sequence (Q9UKJ0 20-227): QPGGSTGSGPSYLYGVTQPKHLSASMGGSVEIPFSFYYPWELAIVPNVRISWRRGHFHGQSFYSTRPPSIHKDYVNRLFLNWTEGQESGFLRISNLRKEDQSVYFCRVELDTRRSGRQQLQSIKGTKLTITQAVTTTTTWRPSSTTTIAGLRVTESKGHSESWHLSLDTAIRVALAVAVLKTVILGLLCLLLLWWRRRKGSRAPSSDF

| Binder | binding result |
| --- | --- |
| B1 | no binding |
| B2 | no binding |
| B3 | no binding |

These binders were tested against T3, murine PILRB, ectopically expressed on 293 cells (murine, UniProt Q2YFS2 29-224) (assay: flow cytometry, 293 cells expressing target).
T3 construct: whole, on cells; also called mB
Experimental: as §2

T3 sequence (Q2YFS2 29-224): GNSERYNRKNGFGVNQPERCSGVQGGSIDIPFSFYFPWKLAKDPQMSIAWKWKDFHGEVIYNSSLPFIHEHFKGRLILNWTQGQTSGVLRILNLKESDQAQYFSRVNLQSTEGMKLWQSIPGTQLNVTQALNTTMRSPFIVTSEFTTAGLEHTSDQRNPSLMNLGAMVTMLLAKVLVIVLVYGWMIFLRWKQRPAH

| Binder | binding result |
| --- | --- |
| B1 | no binding |
| B2 | no binding |
| B3 | no binding |

Each binder was assayed against T4, human PILRA, G78 variant, ectopically expressed on 293 cells (human, UniProt Q9UKJ1 20-303) (assay: flow cytometry, 293 cells expressing target).
T4 construct: the cells are labelled G78; also called hA G78 OE; hA
Experimental: as §2

T4 sequence (Q9UKJ1 other isoform, or with tags, fused parts or gaps mutant): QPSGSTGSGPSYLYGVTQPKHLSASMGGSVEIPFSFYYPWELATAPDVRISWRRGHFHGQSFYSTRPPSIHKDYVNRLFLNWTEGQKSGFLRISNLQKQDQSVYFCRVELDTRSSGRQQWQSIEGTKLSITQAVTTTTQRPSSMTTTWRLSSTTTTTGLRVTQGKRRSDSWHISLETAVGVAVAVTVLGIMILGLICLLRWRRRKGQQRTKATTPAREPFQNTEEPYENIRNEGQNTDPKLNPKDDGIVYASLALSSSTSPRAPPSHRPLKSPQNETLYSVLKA

| Binder | EC50 [µg/mL] |
| --- | --- |
| B1 | 3.4 |
| B2 | 1 |
| B3 | 31 |

What follows are binders tested against T5, cynomolgus PILRA, ectopically expressed on 293 cells (cynomolgus monkey) (assay: flow cytometry, 293 cells expressing target).
Experimental: as §2

T5 sequence (chain, as listed by the source): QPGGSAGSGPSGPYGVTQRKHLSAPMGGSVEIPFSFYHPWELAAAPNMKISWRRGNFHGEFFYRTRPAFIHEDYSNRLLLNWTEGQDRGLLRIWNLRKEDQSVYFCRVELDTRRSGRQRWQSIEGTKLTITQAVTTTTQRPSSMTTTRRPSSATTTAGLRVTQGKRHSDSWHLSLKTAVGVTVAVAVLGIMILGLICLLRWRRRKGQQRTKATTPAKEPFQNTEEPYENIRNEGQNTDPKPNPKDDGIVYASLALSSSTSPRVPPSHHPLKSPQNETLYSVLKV

| Binder | binding result |
| --- | --- |
| B1 | no binding |
| B2 | no binding |
| B3 | no binding |

The binders below were run against T6, murine PILRA, ectopically expressed on 293 cells (murine, UniProt Q2YFS3 32-302) (assay: flow cytometry, 293 cells expressing target).
T6 construct: also called mA
Experimental: as §2

T6 sequence (Q2YFS3 32-302): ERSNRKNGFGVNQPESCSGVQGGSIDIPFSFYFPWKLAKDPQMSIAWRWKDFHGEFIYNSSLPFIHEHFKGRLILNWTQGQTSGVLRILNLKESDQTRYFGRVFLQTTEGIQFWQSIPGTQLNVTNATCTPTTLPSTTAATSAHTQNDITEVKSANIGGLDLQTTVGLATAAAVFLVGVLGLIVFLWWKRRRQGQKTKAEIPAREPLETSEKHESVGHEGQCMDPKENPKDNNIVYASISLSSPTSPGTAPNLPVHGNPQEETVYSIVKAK

| Binder | binding result |
| --- | --- |
| B1 | no binding |
| B2 | no binding |
| B3 | no binding |

The binders below were run against T1, PILRA Fc (soluble human PILRA) (assay: flow cytometry; PILRA Fc binding to human CD3+ T cells with antibody, relative to PILRA Fc alone).
Experimental: as §1

| Binder | % Binding [%] |
| --- | --- |
| B4 | 33.2 |
| B5 | 8.1 |
| B6 | 82 |
| B7 | 60 |
| B8 | 66.2 |

Each binder was assayed against human PILRA on the surface of primary human macrophages or monocytes (human, UniProt Q9UKJ1 20-303) (assay: cell-based or functional assay).
Chain of human PILRA on the surface of primary human macrophages or monocytes (Q9UKJ1 20-303): as the sequence (Q9UKJ1 other isoform, or with tags, fused parts or gaps mutant) above, with G59R counted along it

| Binder | hPILRA downregulation EC50 [µg/mL] |
| --- | --- |
| B9 | 0.48 |
| B10 | 0.4 |
| B11 | 0.009 |

The binders below were run against T7, human PILRA, c-term His-Avi tag (human, UniProt Q9UKJ1 20-197, limits assumed) (assay: SPR (Biacore), antibody captured, PILRA as analyte).
T7 construct: not shown: C-terminal His-Avi tag
How it was run: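 Antibodies were captured at 10 μg/ml on an anti-huFc or anti-msFc CM5 surface, and human PILRA was flowed at 33, 100 and 300 nM in HBSTE/0.5% BSA, pH 7.4. The surface was regenerated with 10 mM glycine-HCl, pH 2.1, after each analyte. Curves were double-referenced with buffer injections.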

T7 sequence (Q9UKJ1 20-197 limits assumed): as the sequence (Q9UKJ1 20-197 limits assumed) above

| Binder | Kd [nM] | koff [s⁻¹] | kon [M⁻¹ s⁻¹] | t½ [min] |
| --- | --- | --- | --- | --- |
| B1 | < 1.3 | < 0.0001 | 75000 | – |
| B2 | 36.8 | 0.0014 | 37000 | 8.5 |
| B3 | 65.6 | 0.0012 | 18000 | 9.6 |
| B6 | 10.5 | 0.0036 | 340000 | 3.3 |
| B7 | 45 | 0.0037 | 81000 | 3.2 |
| B8 | 2.2 | 0.0038 | 1.7e+06 | 3.1 |

These binders were tested against T4, human PILRA, G78 variant, ectopically … (assay: flow cytometry; NPDC1-mIgGa binding to 293 cells expressing human PILRA G78 with antibody, relative to NPDC1 Fc alone).
Experimental: Conditioned media samples containing antibodies (10 ug/ml) were assessed for modulating the binding of Neural Proliferation Differentiation and Control Protein 1 (NPDC1) Fc to 293 cells ectopically expressing human PILRA. Briefly, conditioned media samples containing antibodies were incubated with 293 cells expressing human PILRA for 30 minutes at 4° C., and then 5 μg/ml NPDC1 Fc was added to this mixture. Where the antibodies were generated from phage panning, a NPDC1-hIgG1 ligand was used. Where the antibodies were generated from hybridomas, a NPDC1-mIgGa ligand was used. After 30 minutes incubation at 4° C., cells were washed and cell-bound NPDC1 Fc was detected with anti-human or mouse IgG Alexa 647. Cells were analyzed by flow cytometry on FACS Canto II, and for all cell lines, the percentage of NPDC1 Fc binding in the presence of conditioned media relative to NPDC1 Fc binding alone was calculated. Several antibodies decreased binding of NPDC1 to human PILRA, and a few antibodies enhanced ligand binding to human PILRA. Antibodies that show enhancement in this assay may block cis inhibition to promote trans interactions or may allosterically activate to enhance trans interactions without blocking cis.

| Binder | % Binding [%] |
| --- | --- |
| B4 | 69.7 |
| B5 | 35.9 |
| B6 | 110 |
| B7 | 158 |
| B8 | 177 |

These binders were tested against T2, human PILRB, ectopically expressed on … (assay: flow cytometry, MFI relative to 293 parental cells).
Experimental: as §2

| Binder | MFIr |
| --- | --- |
| B4 | 1.2 |
| B5 | 1.2 |
| B6 | 1.1 |
| B7 | 1.2 |
| B8 | 1.1 |

The binders below were run against T3, murine PILRB, ectopically expressed on … (assay: flow cytometry, MFI relative to 293 parental cells).
Experimental: as §2

| Binder | MFIr |
| --- | --- |
| B4 | 0.8 |
| B5 | 0.3 |
| B6 | 0.8 |
| B7 | 0.8 |
| B8 | 0.8 |

What follows are binders tested against T4, human PILRA, G78 variant, ectopically … (assay: flow cytometry, MFI relative to 293 parental cells).
Experimental: as §2

| Binder | MFIr |
| --- | --- |
| B4 | 44.2 |
| B5 | 202 |
| B6 | 36.1 |
| B7 | 113 |
| B8 | 102 |

The binders below were run against T5, cynomolgus PILRA, ectopically expressed … (assay: flow cytometry, MFI relative to 293 parental cells).
Experimental: as §2

| Binder | MFIr |
| --- | --- |
| B4 | 0.8 |
| B5 | 0.3 |
| B6 | 0.8 |
| B7 | 70.5 |
| B8 | 2.7 |

Each binder was assayed against T6, murine PILRA, ectopically expressed on … (assay: flow cytometry, MFI relative to 293 parental cells).
Experimental: as §2

| Binder | MFIr |
| --- | --- |
| B4 | 0.9 |
| B5 | 0.3 |
| B6 | 1 |
| B7 | 0.8 |
| B8 | 0.9 |
